Reference: patent US20050164920A1 (Pfizer, published 2005)
Blank lines part the entries; values can stand above or below the binder they belong to. Positions of bridges follow the written chain, without caps; N, C: chain ends.

Target: TrkB receptor on rat cerebellar neurons (rat, UniProt Q63604 32-821)
Assay: cell-based or functional assay

Chain of TrkB receptor on rat cerebellar neurons (Q63604 32-821): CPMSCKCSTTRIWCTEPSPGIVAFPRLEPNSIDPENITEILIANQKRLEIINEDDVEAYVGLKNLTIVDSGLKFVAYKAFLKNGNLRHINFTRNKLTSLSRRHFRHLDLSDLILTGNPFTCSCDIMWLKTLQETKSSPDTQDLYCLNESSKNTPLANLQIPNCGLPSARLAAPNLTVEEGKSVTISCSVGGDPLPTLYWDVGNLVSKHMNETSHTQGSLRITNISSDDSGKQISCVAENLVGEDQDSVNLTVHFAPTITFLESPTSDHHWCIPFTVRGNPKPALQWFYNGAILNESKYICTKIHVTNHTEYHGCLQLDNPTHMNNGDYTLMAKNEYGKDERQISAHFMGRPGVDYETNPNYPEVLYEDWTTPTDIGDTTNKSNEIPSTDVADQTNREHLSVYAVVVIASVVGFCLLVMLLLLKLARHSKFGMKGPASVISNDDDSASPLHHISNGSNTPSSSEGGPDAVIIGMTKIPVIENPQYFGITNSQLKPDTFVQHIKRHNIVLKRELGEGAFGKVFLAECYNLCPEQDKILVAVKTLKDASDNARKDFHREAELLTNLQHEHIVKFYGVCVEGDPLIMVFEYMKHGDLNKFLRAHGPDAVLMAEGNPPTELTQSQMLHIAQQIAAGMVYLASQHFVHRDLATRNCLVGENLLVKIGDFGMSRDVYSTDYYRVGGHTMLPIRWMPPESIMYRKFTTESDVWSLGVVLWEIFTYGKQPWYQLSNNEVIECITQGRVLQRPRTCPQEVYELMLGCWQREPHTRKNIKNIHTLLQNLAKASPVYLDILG

increase of neurite length against control culture, BDNF at 5 ng/ml: 60 to 70%
neurite outgrowth of rat cerebellar neurons, concentration of maximal response: 1 to 10 ng/mL
B1: brain-derived neurotrophic factor (BDNF), recombinant human (ligand)
chain: HSDPARRGELSVCDSISEWVTAADKKTAVDMSGGTVTVLEKVPVSKGQLKQYFYETKCNPMGYTKEGCRGIDKRHWNSQCRTTQSYVRALTMDSKKRIGWRFIRIDTSCVCTLTIKRGR

EC50 of stimulation of neurite outgrowth: ~300 nM
B2: N-Ac-…-NH2 (peptide)
peptide: Ac-CSRRGELAASRRGELC-NH2
modifications: disulfide 1-16
SMILES: CC(=O)N[C@H]1CSSC[C@@H](C(N)=O)NC(=O)[C@H](CC(C)C)NC(=O)[C@H](CCC(=O)O)NC(=O)CNC(=O)[C@H](CCCNC(=N)N)NC(=O)[C@H](CCCNC(=N)N)NC(=O)[C@H](CO)NC(=O)[C@H](C)NC(=O)[C@H](C)NC(=O)[C@H](CC(C)C)NC(=O)[C@H](CCC(=O)O)NC(=O)CNC(=O)[C@H](CCCNC(=N)N)NC(=O)[C@H](CCCNC(=N)N)NC(=O)[C@H](CO)NC1=O

neurite outgrowth of rat cerebellar neurons, concentration of maximal response: 1 to 10 ng/mL
B3: neurotrophin-4 (NT-4/5), recombinant human (ligand)
chain: GVSETAPASRRGELAVCDAVSGWVTDRRTAVDLRGREVEVLGEVPAAGGSPLRQYFFETRCKADNAEEGGPGAGGGGCRGVDRRHWVSECKAKQSYVRALTADAQGRVGWRWIRIDTACVCTLLSRTGRA

inhibition of the BDNF response, fold against the NGF and NT-3 derived peptides: ~5 fold
B4: N-Ac-CSRRGEC-NH2 (peptide)
peptide: Ac-CSRRGEC-NH2
modifications: disulfide 1-7
SMILES: CC(=O)N[C@H]1CSSC[C@@H](C(N)=O)NC(=O)[C@H](CCC(=O)O)NC(=O)CNC(=O)[C@H](CCCNC(=N)N)NC(=O)[C@H](CCCNC(=N)N)NC(=O)[C@H](CO)NC1=O
